Results published in patent US20230192839A1, “ANTIBODIES HAVING CONDITIONAL AFFINITY AND METHODS OF USE THEREOF” (PFIZER INC., priority 2017, published 2023).
Positions count from the first letter of the chain named.

B1: P02_D08: anti-CD33 clone with conditional affinity; VH SEQ ID NO: 13, VL SEQ ID NO: 14 (antibody, V domains shown)
VH: QVQLVESGGGLVQAGGSLRLSCAASRRSSRSWAMHWVRQAPGKGLEWVAVISYDGRLKYYADSVKGRFTISRDNAEYLVYLQMNSLRAEDTAVYYCAAERGDGLDGNVGLDIWGQGTLVTVSS
VL: DIQMTQSPSSLSASVGDRVTITCRASQSISKYLNWYQQKPGKAPKLLIYGASTLQSGVPSRFSGSGSGTDFTLTISSLQPEDFATYYCQQSYSSGTFGQGTKVEIK
modifications: Synthtic Antibody; Synthetic Antibody
B2: P02_E11: anti-CD33 clone with conditional affinity; VH SEQ ID NO: 15, VL SEQ ID NO: 16; also as scFv in CAR (antibody, V domains shown)
VH: QVQLVESGGGLVQAGGSLRLSCAASRRSSRSWAMHWVRQAPGKGLEWVAVISYDGRLKYYADSVKGRFTISRDNAEYLVYLQMNSLRAEDTAVYYCAAEASTDNGLDYWGQGTLVTVSS
VL: B1 VL with S28T, K31R, Y32H, G50S, T53S, Q55A, Y92H, S94A
modifications: Synthetic Antibody
notes: also as scFv in CAR
B3: P03_G12: anti-CD33 clone with conditional affinity; VH SEQ ID NO: 21, VL SEQ ID NO: 22 (antibody, V domains shown)
VH: QVQLVESGGGLVQAGGSLRLSCAASRRSSRSWAMHWVRQAPGKGLEWVAVISYDGRLKYYADSVKGRFTISRDNAEYLVYLQMNSLRAEDTAVYYCAADPTEGWSYLDYWGQGTLVTVSS
VL: B1 VL with S28G, K31S, T53R, S91G
modifications: Synthetic Antibody
B4: P02_H01: anti-CD33 clone with conditional affinity; VH SEQ ID NO: 17, VL SEQ ID NO: 18 (antibody, V domains shown)
VH: B2 VH with E99G, A100S, S101G, T102G, D103G, N104D, Y108V
VL: B1 VL with S28T, K31S, G50S, A51S, S56G
modifications: Synthetic Antibody
B5: P14_E03: anti-EGFR clone with conditional affinity; VH SEQ ID NO: 125, VL SEQ ID NO: 126 (antibody, V domains shown)
VH: QVQLVESGGGLVQAGGSLRLSCAASRRSSRSWAMHWVRQAPGKGLEWVAVISYDGRLKYYADSVKGRFTISRDNAEYLVYLQMNSLRAEDTAVYYCAAAPRVDWSDVSSGIDYWGQGTLVTVSS
VL: QSVLTQPPSASGTPGQRVTISCSGSISNIGTNNVYWYQQLPGTAPKLLIYRNNQRPSGVPDRFSGSKSGTSASLAISGLRSEDEADYYCSAWDDSLSGVVFGTGTKLTVL
modifications: Synthetic Antibody
B6: P07_H08: anti-EGFR clone with conditional affinity; VH SEQ ID NO: 121, VL SEQ ID NO: 122; also as scFv in CAR (antibody, V domains shown)
VH: QVQLVESGGGLVQAGGSLRLSCAASRRSSRSWAMHWVRQAPGKGLEWVAVISYDGRLKYYADSVKGRFTISRDNAEYLVYLQMNSLRAEDTAVYYCAAGFDWGWDSSDIYSAMDYWGQGTLVTVSS
VL: DIQMTQSPSSLSASVGDRVTITCRASQNIGRYLHWYQQKPGKAPKLLIYSASNLQSGVPSRFSGSGSGTDFTLTISSLQPEDFATYYCQQSYSSPFTFGQGTKVEIK
modifications: Synthetic Antibody
notes: also as scFv in CAR
B7: P01_B06: anti-EGFR reference clone, less than 2-fold MTX effect; VH SEQ ID NO: 129, VL SEQ ID NO: 130 (antibody, V domains shown)
VH: QVQLVESGGGLVQAGGSLRLSCAASRRSSRSWAMHWVRQAPGKGLEWVAVISYDGRLKYYADSVKGRFTISRDNAEYLVYLQMNSLRAEDTAVYYCAADTSMFASYDPMDVWGQGTLVTVSS
VL: QSVLTQPPSASGTPGQRVTISCSGSSSNIGRNYVNWYQQLPGTAPKLLIYRDDHRPSGVPDRFSGSKSGTSASLAISGLRSEDEADYYCASWDDTLSGWVFGTGTKLTVL
modifications: Synthetic Antibody
B8: P05_A11: anti-EGFR clone with conditional affinity; VH SEQ ID NO: 133, VL SEQ ID NO: 134; also as scFv in CAR (antibody, V domains shown)
VH: QVQLVESGGGLVQAGGSLRLSCAASRRSSRSWAMHWVRQAPGKGLEWVAVISYDGRLKYYADSVKGRFTISRDNAEYLVYLQMNSLRAEDTAVYYCAASDDADIFDDYSYGAMDYWGQGTLVTVSS
VL: B7 VL with N35Y, R51M, D52T, D53S, H54Q, T95N, S97R, G98A
modifications: Synthetic Antibody
notes: also as scFv in CAR
B9: P01_F02: anti-EGFR clone with conditional affinity; VH SEQ ID NO: 119, VL SEQ ID NO: 120; also as scFv in CAR (antibody, V domains shown)
VH: QVQLVESGGGLVQAGGSLRLSCAASRRSSRSWAMHWVRQAPGKGLEWVAVISYDGRLKYYADSVKGRFTISRDNAEYLVYLQMNSLRAEDTAVYYCAADVESALAYGEPYHHMDVWGQGTLVTVSS
VL: B7 VL with N35Y, D52T, D53S, H54Q, S91T, T95S
modifications: Synthetic Antibody
notes: also as scFv in CAR

How the values were obtained:
human CD33 = experiment: Biacore SPR binding kinetics of anti-CD33 scFv-Fc clones with or without 10 µM MTX; conditions: CD33, 37° C., pH 7.4
Excerpt: The first 4 rounds of panning used biotinylated CD33 antigen captured on streptavidin or neutravidin coated 96-well plates. […] 1536 clones were randomly chosen from the 4th and 5th round of panning against the CD33 antigen and their binding specificity determined by phage ELISA. Clones that specifically bound to CD33 were sequenced and all unique clones were subjected to a phage competition ELISA to assess their relative affinities to CD33 and sensitivity to MTX by measuring their binding strengths in the presence or absence of 10 µM (micromolar) MTX (i.e. in 0 or 10 µM MTX).
(§1) All binding kinetics analysis was performed on label-free Biacore surface plasmon biosensors (Biacore T200™ from GE Life Sciences) at 37° C. in 10 mM Hepes pH 7.4, 150 mM NaCl, 0.05% Tween-20 (HBST+), with or without 10 µM MTX. The Biacore data were processed in Biacore T200 Evaluation Software, and the data were double-referenced (Myszka, 1999, J Mol Recognit 12(5):279-284) and fit globally to a simple Langmuir with mass transport model to determine the equilibrium dissociation constant, KD, from the ratio of the kinetic rate constants (KD = koff/kon). In some cases the binding of antigen was very low (or not detectable) in the presence of 10 µM MTX and as a result kinetic rate constants could not be accurately determined. In these cases, a KD (or KD limit) was estimated based on the binding response at the highest analyte concentration tested or based on the typical limit of detection for a Biacore T200.

[1] = tested on: human epidermal growth factor receptor (EGFR); experiment: Biacore SPR binding kinetics of anti-EGFR scFv-Fc clones with or without 10 µM MTX; conditions: 37° C.; for koff, kinetics toward antigen with 0 µM MTX / kon, kinetics toward antigen with 0 µM MTX / koff, kinetics toward antigen with 10 µM MTX / kon, kinetics toward antigen with 10 µM MTX: pH 7.4, scFv-Fc; for koff, kinetics toward antigen with 10 µM MTX / kon, kinetics toward antigen with 10 µM MTX / Kd: 10 µM MTX; for Kd: pH 7.4, koff/kon, or estimated from binding response / limit of detection for weak interactions, read-out: KD, kinetics toward antigen with 10 µM MTX
Procedure: as §1, with “T200. […]” for “T200.”

Molecule | koff, kinetics toward antigen with 0 µM MTX (human CD33; scFv-Fc) | kon, kinetics toward antigen with 0 µM MTX (human CD33; scFv-Fc) | koff, kinetics toward antigen with 0 µM MTX [1] | kon, kinetics toward antigen with 0 µM MTX [1] | koff, kinetics toward antigen with 10 µM MTX [1] | kon, kinetics toward antigen with 10 µM MTX [1] | further results
B1 | 0.0061 s⁻¹ | 61000 M⁻¹ s⁻¹ | – | – | – | – | koff, kinetics toward antigen with 10 µM MTX (human CD33; 10 µM MTX, scFv-Fc): 0.062 s⁻¹; kon, kinetics toward antigen with 10 µM MTX (human CD33; 10 µM MTX, scFv-Fc): 88000 M⁻¹ s⁻¹
B2 | 0.0038 s⁻¹ | 58000 M⁻¹ s⁻¹ | – | – | – | – | –
B3 | 0.0094 s⁻¹ | 71000 M⁻¹ s⁻¹ | – | – | – | – | Kd (human CD33; 10 µM MTX, koff/kon, or estimated from binding response / limit of detection for weak interactions, read-out: KD, kinetics toward antigen with 10 µM MTX): > 10.9 µM
B4 | 0.037 s⁻¹ | 28000 M⁻¹ s⁻¹ | – | – | – | – | –
B5 | – | – | 0.00067 s⁻¹ | 110000 M⁻¹ s⁻¹ | 0.00072 s⁻¹ | 29000 M⁻¹ s⁻¹ | –
B6 | – | – | 0.27 s⁻¹ | 330000 M⁻¹ s⁻¹ | – | – | Kd [1]: > 9.37 µM
B7 | – | – | 0.024 s⁻¹ | 100000 M⁻¹ s⁻¹ | 0.026 s⁻¹ | 100000 M⁻¹ s⁻¹ | –
B8 | – | – | 0.028 s⁻¹ | 120000 M⁻¹ s⁻¹ | 0.05 s⁻¹ | 87000 M⁻¹ s⁻¹ | –
B9 | – | – | 0.011 s⁻¹ | 61000 M⁻¹ s⁻¹ | – | – | Kd [1]: > 9.41 µM
